From US20250213627A1 (BAYLOR COLLEGE OF MEDICINE, published 2025)

Experiments:
[1] = target: mKv1.3 channel stably expressed in mouse L929 fibroblasts (mouse, UniProt P16390 1-528); experiment: cell-based or functional assay
[2] = target: Kv1.3 potassium channel (species not stated for this experiment); experiment: cell-based or functional assay

Sequence of mKv1.3 channel stably expressed in mouse L929 fibroblasts (P16390 whole entry): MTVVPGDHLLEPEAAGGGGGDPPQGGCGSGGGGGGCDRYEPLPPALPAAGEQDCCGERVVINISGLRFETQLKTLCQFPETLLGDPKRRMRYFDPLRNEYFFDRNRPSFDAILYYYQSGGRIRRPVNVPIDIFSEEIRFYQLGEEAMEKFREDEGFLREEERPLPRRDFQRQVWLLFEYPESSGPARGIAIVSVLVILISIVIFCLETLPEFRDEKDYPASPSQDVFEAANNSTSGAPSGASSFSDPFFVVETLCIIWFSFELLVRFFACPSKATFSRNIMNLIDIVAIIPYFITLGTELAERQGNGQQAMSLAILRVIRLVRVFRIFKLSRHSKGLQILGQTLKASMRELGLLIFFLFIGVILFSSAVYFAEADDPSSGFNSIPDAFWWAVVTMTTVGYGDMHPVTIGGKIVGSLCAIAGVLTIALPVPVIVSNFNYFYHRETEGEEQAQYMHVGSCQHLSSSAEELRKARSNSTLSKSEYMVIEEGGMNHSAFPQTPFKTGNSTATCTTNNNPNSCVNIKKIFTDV

B1: synthetic ShK-235 (peptide)
peptide: RSCIDTIPKSRCTAFKCKHSIKYRLSFCRKTCGTCA
modifications: 3 disulfide bonds (oxidatively folded synthetic peptide)
[1]
  IC50 of block of mKv1.3 currents (whole-cell patch-clamp, L929 cells): 69.3 pM
[2]
  IC50 of block of Kv1.3 channel function (whole-cell patch-clamp): 62 pM
